Data from patent US20240093191A1, “COMPOSITIONS AND METHODS FOR TREATING DISEASE ASSOCIATED WITH DUX4 OVEREXPRESSION” (RESEARCH INSTITUTE AT NATIONWIDE CHILDREN'S HOSPITAL, priority 2021, published 2024).
Values joined by “and” are separate entries in the source; they are usually repeats but may differ in a detail not shown here. Equal entries are not always repeated.

Legend:
Format in all cases: cell-based, human
[1] = system: DUX4 protein; assay: Western blot of V5-tagged DUX4 protein in co-transfected HEK293 cells; conditions: HEK293; for Average inhibition efficiency (%) of DUX4 protein levels: CMV.DUX4-FL/CMV.eGFP, molar ratio 1 to 3, eGFP normalizer, relative to U6-milacZ, N = 3-8
Protocol: Western Blots. […] 50 mM Tris (pH 7.5-8.0), 150 mM NaCl, 0.1% (v/v) SDS, 0.5% (v/v) deoxycholate, 1% (v/v) triton X-100 (Fisher Scientific) and 1 tablet of protease inhibitor (ThermoFisher Scientific) per 10 mL of buffer. The total protein extract was quantified using the DC Protein Assay (Bio-Rad). Twenty microgram samples were separated on 12% SDS-PAGE, transferred to nitrocellulose membrane, using the wet transfer system, and incubated with the following antibodies: mouse monoclonal antibody to V5 (horseradish peroxidase [HRP]-coupled) [1:5,000 in 5% milk TBST buffer (150 mM NaCl, 50 mM Tris-HCl pH 7.4 and 0.1% Tween 20 (Fisher Scientific)), R961-25; Invitrogen); rabbit polyclonal eGFP antibody (1:50,000 in 3% BSA PBS, ab290; Abcam); mouse monoclonal β-actin antibodies (1:60,000; Sigma, St Louis, MO); overnight at 4° C. When using the eGFP antibody, membranes were blocked 30 mins with 3% BSA PBS prior to blotting. eGFP-probed blots were washed five times, 5 min each with 0.5% Tween 20 (Fisher Scientific) in TBST buffer, and then incubated with HRP-coupled goat anti-rabbit secondary antibody (1:250,000 in 3% BSA PBS, 115-035-144; Jackson ImmunoResearch) for 2 hours at room temperature. V5-probed blots were washed five times, 5 min each with 0.1% Tween 20 in TBST buffer. Following washes, blots were developed using Immobilon Western HRP substrate (Millipore) and exposed to film. DUX4.V5, and eGFP quantification was assessed using ImageJ.

[2] = system: DUX4 ORF (RenLuc-DUX4 ORF); assay: Dual-luciferase assay, RenLuc-DUX4 ORF reporter co-transfected with miDUX4 plasmids in HEK293 cells; parameters: increase in relative Renilla luciferase activity compared to original miDUX4 counterpart: concentration or dose not given beside the values; conditions: for increase in relative Renilla luciferase activity compared to original miDUX4 counterpart: miDUX4 with mi405F flanking sequences
Protocol: Dual Luciferase Assay. (See also FIGS. 1A, 3A-B, 4A-B, 5B, and 16B-C.) This assay was performed as previously described by Wallace et al. (Mol. Ther. Methods Clin. Dev. 8: 121-30 (2018)) and following the dual-luciferase reporter assay system (Promega) protocol with some modifications. All plasmid constructs had the psiCheck2 dual luciferase reporter plasmid (Promega) as backbone that contains separate Renilla and Firefly luciferase genes, where the former contains the various target sequences used in the experiments of the disclosure, and the latter serves as a transfection normalizer (control). All DUX4 and control sequences were cloned downstream of the Renilla luciferase stop codon, serving as a 3′UTR. HEK293 cells were pre-plated 24h before transfection. Cells were then co-transfected with the luciferase DUX4 reporter and individual microRNA expression plasmids in an increasing luciferase DUX4 reporter:miRNA molar ratio using Lipofectamine 2000 (Invitrogen). Luciferase activity was measured 24h or 48h after transfection. DUX4 gene silencing was determined as previously described [Wallace et al., Mol. Ther. Methods Clin. Dev. 8: 121-30 (2018)]. Triplicate data were averaged per experiment, and individual experiments were performed 3 times. Results were reported as the average ratio of Renilla to Firefly luciferase activity±SEM for all combined experiments.
Accordingly, two new mi405 constructs, i.e., mi405F and mi405NF, were designed. […] To assess the inhibition efficiency of the three mi405 constructs, a dual-luciferase assay and western blot analysis, similar to what was described for mir-675, were carried out. In the dual-luciferase assay, U6.mi405, U6.mi405F, or U6.mi405NF was co-transfected into HEK293 cells along with the RenLuc-DUX4 ORF (a construct expressing the open reading frame of DUX4 as a 3′UTR sequence of Renilla Luciferase). 24 h after transfection, U6.mi405, U6.mi405F, and U6.mi405NF reduced the relative Renilla luciferase activity by 85±1%, 89±1%, and 66±1% (P<0.0001, ANOVA, N=3), respectively, when tested against the RenLuc-DUX4 ORF construct.

[3] = system: mir-675-5p; assay: Small-transcript northern blot of mir-675 processing in HEK293 cells; conditions: HEK293; anti-mir-675-5p biotinylated probe
Excerpt: Small-Transcript Northern Blots. […] (SEQ ID NO: 148)).

Molecule	Average inhibition efficiency (%) of DUX4 protein levels [1]	increase in relative Renilla luciferase activity compared to original miDUX4 counterpart ([2]; normalized to miGFP) [%]	also measured
U6-mir-675-2.6: mir-675 construct with modified 5' and 3' flanking sequences (nucleic acid) DNA: TCTAGAGATCCGACGCCGCCATCTCTAGGCCCGCGCCGGCCCCCTCGCACAGACTTGTGGGAGAAGCTCGGCTACTCCCCTGCCCCGGTTAATTTGCATATAATATTTCCTAGTAACTATAGAGGCTTAATGTGCGATAAAAGACAGATAATCTGTTCTTTTTAATACTAGCTACATTTTACATGATAGGCTTGGATTTCTATAAGAGATACAAATACTAAATTATTATTTTAAAAAACAGCACAAAAGGAAACTCACCCTAACTGTAAAGTAATTGTGTGTTTTGAGACTATAAATATCCCTTGGAGAAAAGCCTTGTTAACGCGCCCCAGGGTCTGGTGCGGAGAGGGCCCACAGTGGACTTGGTGACGCTGTATGCCCTCACCGCTCAGCCCCTGGGGTAACTCCTAATCACACTTTTTT	63 ± 2 (N = 5) %	–	–
mi599F: miDUX4 cloned with mi405F flanking sequences (nucleic acid, expressed or natural sequence) DNA: GCTCGAGTGAGCAGAGGCTCTCCCACAGGGGGCTTTCTGAAAGCCACAGATGGGAAAGCCCCCTGTGGGAGAGCCCTGCCTACTAGTAATTCTTCGATTCTGC	–	24±9	–
U6-milacZ: negative control miRNA expression plasmid (nucleic acid) DNA: ACGCCGCCATCTCTAGGCCCGCGCCGGCCCCCTCGCACAGACTTGTGGGAGAAGCTCGGCTACTCCCCTGCCCCGGTTAATTTGCATATAATATTTCCTAGTAACTATAGAGGCTTAATGTGCGATAAAAGACAGATAATCTGTTCTTTTTAATACTAGCTACATTTTACATGATAGGCTTGGATTTCTATAAGAGATACAAATACTAAATTATTATTTTAAAAAACAGCACAAAAGGAAACTCACCCTAACTGTAAAGTAATTGTGTGTTTTGAGACTATAAATATCCCTTGGAGAAAAGCCTTGTTTGCGTTTAGTGAACCGTCAGATGGTACCGTTTAAACTCGAGTGAGCGACATGTTGCCACTCGCTTTAATCTGTAAAGCCACAGATGGGATTAAAGCGAGTGGCAACATGGCGCCTACTAGAGCGGCCGCCACAGCGGGGAGATCCAGACATGATAAGATACATTTTTT	0 ± 2 (N = 8) %	–	–
mi318F: miDUX4 cloned with mi405F flanking sequences (nucleic acid, expressed or natural sequence) DNA: GCTCGAGTGAGCGAGCCCTGCTCCTCCGAGCCTTTCTGAAAGCCACAGATGGGAAAGGCTCGGAGGAGCAGGGCGTGCCACTAGTAATTCTTCGATTCTGC	–	44±15	–
U6.mi405NF: mi405 with one G at 5' end and no 3' flanking sequence (nucleic acid) DNA: ACGCCGCCATCTCTAGGCCCGCGCCGGCCCCCTCGCACAGACTTGTGGGAGAAGCTCGGCTACTCCCCTGCCCCGGTTAATTTGCATATAATATTTCCTAGTAACTATAGAGGCTTAATGTGCGATAAAAGACAGATAATCTGTTCTTTTTAATACTAGCTACATTTTACATGATAGGCTTGGATTTCTATAAGAGATACAAATACTAAATTATTATTTTAAAAAACAGCACAAAAGGAAACTCACCCTAACTGTAAAGTAATTGTGTGTTTTGAGACTATAAATATCCCTTGGAGAAAAGCCTTGTTTGCTCGAGTGAGCGATCCAGGATTCAGATCTGGTTTCTGTAAAGCCACAGATGGGAAACCAGATCTGAATCCTGGACTGCCTACTAGATTTTTT	–	–	reduction of relative Renilla luciferase activity ([2]; 1:4 DUX4:mi405 molar ratio, HEK293, 24 h, normalized to miGFP): 66±1%; reduction of Renilla luciferase activity ([2]; DUX4:mi405 molar ratio 2 to 1, HEK293, 24 h, normalized to U6.miGFP): 4±2% and 3.6±1.8%; relative Renilla luciferase activity reached ([2]; DUX4:miDUX4 molar ratio 1:1): 88±3%; increase in relative Renilla luciferase activity ([2]; switching from molar ratio 1:2 to 1:1 DUX4:miDUX4): 73±7%; reduction of DUX4 protein levels ([1]; 1:4 DUX4:mi405 molar ratio, 24 h, normalized to miGFP, N=2): 70±13%
mi1156F: miDUX4 cloned with mi405F flanking sequences (nucleic acid, expressed or natural sequence) DNA: GCTCGAGTGAGCGAAGGCGCAACCTCTCCTAGAAACTGAAAGCCACAGATGGGTTTCTAGGAGAGGTTGCGCCTGTGCCTACTAGTAATTCTTCGATTCTGC	–	34±8	–
mi185F: miDUX4 cloned with mi405F flanking sequences (nucleic acid, expressed or natural sequence) DNA: GCTCGAGTGAGCGAGGTCCAGATTTGGTTTCAGAACTGTAAAGCCACAGATGGGTTCTGAAACCAAATCTGGACCCTGCCTACTAGTAATTCTTCGATTCTGC	–	160±8	–
mi1311F: miDUX4 cloned with mi405F flanking sequences (nucleic acid, expressed or natural sequence) DNA: GCTCGAGTGAGCGAGCGGAGAACTGCCATTCTTTCCTGTAAAGCCACAGATGGGGAAAGAATGGCAGTTCTCCGCGTGCCTACTAGTAATTCTTCGATTCTGC	–	27±9	–
U6.mir-675-2.2: mir-675 construct with flanks as U6.mir-675-2.1, different promoter (nucleic acid) DNA: GAACGCTGACGTCATCAACCCGCTCCAAGGAATCGCGGGCCCAGTGTCACTAGGCGGGAACACCCAGCGCGCGTGCGCCCTGGCAGGAAGATGGCTGTGAGGGACAGGGGAGTGGCGCCCTGCAATATTTGCATGTCGCTATGTGTTCTGGGAAATCACCATAAACGTGAAATGTCTTTGGATTTGGGAATCTTATAAGTTCTGTATGAGACCACTTGGATCCCCCAGGGTCTGGTGCGGAGAGGGCCCACAGTGGACTTGGTGACGCTGTATGCCCTCACCGCTCAGCCCCTGGGGTAACTCCTAATCACACTTTTTT	58 ± 6 (N = 5) %	–	mature mir-675-5p bands on northern blot [3]: detectable mir-675 mature sequences
mi186F: miDUX4 cloned with mi405F flanking sequences (nucleic acid, expressed or natural sequence) DNA: GCTCGAGTGAGCGAGTCCAGATTTGGTTTCAGAATCTGTAAAGCCACAGATGGGATTCTGAAACCAAATCTGGACCTGCCTACTAGTAATTCTTCGATTCTGC	–	27±9	–
U6-mir-675-2.4: mir-675 construct with flanks as U6.mir-675-2.3, different promoter (nucleic acid) DNA: GAACGCTGACGTCATCAACCCGCTCCAAGGAATCGCGGGCCCAGTGTCACTAGGCGGGAACACCCAGCGCGCGTGCGCCCTGGCAGGAAGATGGCTGTGAGGGACAGGGGAGTGGCGCCCTGCAATATTTGCATGTCGCTATGTGTTCTGGGAAATCACCATAAACGTGAAATGTCTTTGGATTTGGGAATCTTATAAGTTCTGTATGAGACCACTTGGATCCAATCACACTGCCCCAGGGTCTGGTGCGGAGAGGGCCCACAGTGGACTTGGTGACGCTGTATGCCCTCACCGCTCAGCCCCTGGGGATACTCCTAATCACACTTTTTT	63 ± 7 (N = 5) %	–	–
